Results from PMC3115796 (The Journal of Cell Biology, 2011).

Key:
SEC-MALS = biological target: the molecule itself; test: SEC-MALS
CLIPCG12 = biological target: T1, CLIPCG12 (human, UniProt P30622 48-300); test: ITC
T1 sequence: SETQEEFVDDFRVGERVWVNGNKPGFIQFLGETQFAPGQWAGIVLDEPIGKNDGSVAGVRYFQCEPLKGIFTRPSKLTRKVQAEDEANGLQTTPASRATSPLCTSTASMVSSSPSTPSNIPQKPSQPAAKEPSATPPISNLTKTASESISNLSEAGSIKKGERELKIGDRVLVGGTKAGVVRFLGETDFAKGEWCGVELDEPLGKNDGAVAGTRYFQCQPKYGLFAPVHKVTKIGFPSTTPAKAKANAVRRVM

BioGFP-SLAIN2 = BioGFP-SLAIN2 (human, UniProt Q9P270 1-581, biotin (substrate linker of the biotin ligase BirA, co-expressed)); test: pull-down

B1: SLAIN2 N-terminal fragment (residues 1–43) (domain or fragment)
chain: not shown
B1 was tested. Which “stoichiometry N” value (SEC-MALS) did it give?
The value was 2.

How did the “stoichiometry N” value (CLIPCG12) turn out when GSMKDDSWKDGCY [SLAIN2c] was run?
Its value is 2.

B2: GST–CLIP-170-N (domain or fragment)
chain: MSMLKPSGLKAPTKILKPGSTALKTPAAAAAPLEKTVPSEKASGPPSSETQEEFVDDFRVGERVWVNGNKPGFIQFLGETQFAPGQWAGIVLDEPIGKNDGSVAGVRYFQCEPLKGIFTRPSKLTRKVQAEDEANGLQTAHARAASPLSTAAATMVSSSPATPSNIPQKPSQPVAKETSATPQISNLTKTASESISNLSEAGSVKKGERELKIGDRVLVGGTKAGVVRFLGETDFAKGEWCGVELDEPLGKNDGAVAGTRYFQCQPKYGLFAPVHKVTKIGFPSTTPAKAKAAAVRRVMATTPASLKRSP
Does B2 bind (BioGFP-SLAIN2)?
Result: binds
